Holding throughout (type): cell-based
One test has as its target T1, CFTR (Homo sapiens, UniProt P13569).
T1 construct: expressed in transfected cells; host or cells: Xenopus laevis oocytes
The test is described as follows: CFTR activity in Xenopus oocytes co-expressing CFTR and β2 adrenergic receptor. To be noted: after 10 μM isoproterenol. As for the experimental part:
Oocyte studies. Xenopus laevis oocytes were harvested and injected as described (Donaldson, et al., J. Biol. Chem. 277:8338 (2002)). Defolliculated healthy stage V-VI oocytes were injected with 0.3 ng of cRNA of each ENaC subunit. Injected oocytes were kept in modified Barth's saline (in mM: 88 NaCl, 1 KCl, 2.4 NaHCO3, 0.3 Ca(NO3)2, 0.41 CaCl2, 0.82 MgSO4, and 15 HEPES, adjusted to pH 7.35 with Tris). Oocytes were studied 24 hr after injection using the two electrode voltage clamp technique as previously described (Donaldson, et al., J. Biol. Chem. 277:8338 (2002)). Oocytes were clamped at a holding potential of […]. The change in amiloride-sensitive whole cell current as an indicator of ENaC activity was determined by subtracting the corresponding current value measured in the presence of 10 μM amiloride from that measured before the application of amiloride.
In both cases, we co-expressed CFTR with the β2 adrenergic receptor (β2AR) which can be stimulated with isoproterenol to raise cAMP and stimulate CFTR (Uezono et al., Receptors Channels 1:233 (1993)).

Test [1] has as its system human bronchial epithelial cultures. The test is described as follows: Airway surface liquid height by confocal microscopy in human bronchial epithelial cultures. To be noted: SPLUNC1 knockdown cultures; 50 ng/ml rSPLUNC1 added to airway surface liquid. The text has this: shRNA-induced knockdown of SPLUNC1: Our strategy was to select shRNA sequences from Dharmacon that targeted SPLUNC1 effectively by using transient siRNA in an immortalized human airway epithelial cell line (denoted AALEB) (Lundberg et al., Oncogene 21:4577 (2002)). […] Passage-1 airway cells surviving one week of selection were then trypsinized and plated down on 12 mm T-clear inserts and differentiated under air liquid interface conditions. At the time of the functional assays, we measured airway surface liquid SPLUNC1 protein levels by Western blot to verify stable knockdown. An anti-luciferase shRNA-expressing adenovirus was infected separately as a control.
Confocal microscopy: To label airway surface liquid, Ringer containing Texas Red-dextran (2 mg/ml; Invitrogen) was added to human bronchial epithelial culture mucosal surfaces. Perfluorocarbon was added mucosally to prevent evaporation of the airway surface liquid and the culture placed in a chamber containing 100 μl Ringer on the stage of a Leica SP5 confocal microscope with a 63× glycerol immersion objective. 5 points per culture were scanned and an average airway surface liquid height determined. For confocal microscopy human bronchial epithelial cultures were bathed serosally in a modified Ringer solution containing (mM): 116 NaCl, 10 NaHCO3, 5.1 KCl, 1.2 CaCl2, 1.2 MgCl2, 20 TES, 10 glucose, pH 7.4). […]

The next test has as its system serine proteases. The test is described as follows: Endogenous protease activity (BGAR-MCA cleavage) on mucosal surfaces of human bronchial epithelial cultures. The protocol: For cell-free assays, reactions were carried out in 50 μl Ringer in a 96 well plate format with 100 μM BGAR-MCA. To measure endogenous protease activity in human bronchial epithelial cultures, 30 μl Ringer with 100 μM BGAR-MCA were placed directly onto the mucosal surfaces of human bronchial epithelial cultures grown on 12 mm T-clear inserts and the cultures were assayed in 12 well plates.

T1 sequence (P13569 whole entry, species assumed): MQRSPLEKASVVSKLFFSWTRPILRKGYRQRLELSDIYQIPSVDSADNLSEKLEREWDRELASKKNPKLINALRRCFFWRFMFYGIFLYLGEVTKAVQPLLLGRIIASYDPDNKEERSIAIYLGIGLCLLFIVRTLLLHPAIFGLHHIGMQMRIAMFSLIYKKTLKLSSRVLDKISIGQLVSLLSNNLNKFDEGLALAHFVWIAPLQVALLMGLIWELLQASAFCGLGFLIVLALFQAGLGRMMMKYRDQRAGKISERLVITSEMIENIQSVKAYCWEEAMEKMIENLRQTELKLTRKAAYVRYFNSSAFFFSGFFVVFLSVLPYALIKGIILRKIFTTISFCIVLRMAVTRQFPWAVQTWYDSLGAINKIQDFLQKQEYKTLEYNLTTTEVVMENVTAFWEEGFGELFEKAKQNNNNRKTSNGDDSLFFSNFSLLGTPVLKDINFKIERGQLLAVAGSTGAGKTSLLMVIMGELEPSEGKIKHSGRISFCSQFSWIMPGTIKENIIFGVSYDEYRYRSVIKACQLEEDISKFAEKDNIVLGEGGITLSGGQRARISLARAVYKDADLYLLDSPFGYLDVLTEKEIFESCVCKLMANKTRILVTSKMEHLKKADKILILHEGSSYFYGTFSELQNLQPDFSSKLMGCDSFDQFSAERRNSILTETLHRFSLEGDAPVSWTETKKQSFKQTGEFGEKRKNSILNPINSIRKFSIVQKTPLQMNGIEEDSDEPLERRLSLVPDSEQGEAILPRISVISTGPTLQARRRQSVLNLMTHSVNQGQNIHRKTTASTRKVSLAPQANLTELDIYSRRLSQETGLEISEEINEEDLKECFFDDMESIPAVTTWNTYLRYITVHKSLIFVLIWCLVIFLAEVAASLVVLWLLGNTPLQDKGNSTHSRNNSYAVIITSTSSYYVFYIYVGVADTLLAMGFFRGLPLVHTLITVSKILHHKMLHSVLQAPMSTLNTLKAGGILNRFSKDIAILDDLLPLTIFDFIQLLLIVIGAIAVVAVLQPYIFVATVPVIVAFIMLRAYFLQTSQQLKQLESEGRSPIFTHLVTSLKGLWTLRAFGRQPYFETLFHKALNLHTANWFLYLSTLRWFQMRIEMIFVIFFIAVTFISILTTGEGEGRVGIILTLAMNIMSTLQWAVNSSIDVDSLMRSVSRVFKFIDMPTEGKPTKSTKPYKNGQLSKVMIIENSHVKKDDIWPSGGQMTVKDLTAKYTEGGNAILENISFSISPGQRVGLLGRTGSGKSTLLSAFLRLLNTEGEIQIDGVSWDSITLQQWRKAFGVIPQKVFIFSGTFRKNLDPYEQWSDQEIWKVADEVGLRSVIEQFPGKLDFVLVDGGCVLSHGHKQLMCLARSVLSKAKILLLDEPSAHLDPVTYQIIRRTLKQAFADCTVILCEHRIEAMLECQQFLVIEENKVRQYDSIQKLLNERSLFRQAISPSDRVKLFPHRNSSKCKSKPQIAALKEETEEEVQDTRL

B1: SPLUNC1: human SPLUNC1, 256 amino acid secreted PLUNC protein (SEQ ID NO:1); rSPLUNC1 = V5/6His-tagged protein purified from HEK293 media (protein, listed as Homo sapiens)
chain: MFQTGGLIVFYGLLAQTMAQFGGLPVPLDQTLPLNVNPALPLSPTGLAGSLTNALSNGLLSGGLLGILENLPLLDILKPGGGTSGGLLGGLLGKVTSVIPGLNNIIDIKVTDPQLLELGLVQSPDGHRLYVTIPLGIKLQVNTPLVGASLLRLAVKLDITAEILAVRDKQERIHLVLGDCTHSPGSLQISLLDGLGPLPIQGLLDSLTGILNKVLPELVQGNVCPLVNEVLRGLDITLVHDIVNMLIHGLQFVIKV
modifications: V5/6His tag
notes: rSPLUNC1 = V5/6His-tagged protein purified from HEK293 media
Regarding B1, the “effect on CFTR activity” value with CFTR (5 ng/ml rSPLUNC1 exposure) and with CFTR (injection of SPLUNC1 cRNA) was “no inhibitory effect” each time. In addition, in test [1], the “regulation of airway surface liquid height” value is “restored”. Moreover, the “spontaneous BGAR-MCA cleavage on mucosal surfaces” value with serine proteases is given as “no significant affect”.
